# Data reported in the Human Domainome abundance scans (Beltran et al. 2025).
# ± gives the uncertainty stated by the source.
# B1: Zinc finger protein ZIC 2, residues 250 to 295; numbered along this chain, O95409 (parent)
# chain: QCIKQELICKWIDPEQLSNPKKSCNKTFSTMHELVTHVSVEHVGGP
# Variants of: B1
# Assay: abundance fitness (aPCA) (normalised: wild type 0, dead -1); higher = more abundant; growth selection in yeast, the domain comes from the species named
# Conditions: Homo sapiens
row,Variant,abundance fitness
1,QCIKQELICKWIDPEQLSNPKKSCNKTFSTMHELTTHVSVEHVGGP [V35T],0.302 ± 0.095
2,QCIKQELICKWIDPEQLSNPKKSCNKTFSTMHELITHVSVEHVGGP [V35I],0.03 ± 0.099
3,QCIKQELICKWIDPEQLSNPKKSCNKTFSTMHELSTHVSVEHVGGP [V35S],0.5 ± 0.086
4,QCIKQELICKWIDPEQLSNPKKSCNKTFSTMHELRTHVSVEHVGGP [V35R],0.193 ± 0.084
5,QCIKQELICKWIDPEQLSNPKKSCNKTFSTMHELATHVSVEHVGGP [V35A],-0.04 ± 0.088
6,QCIKQELICKWIDPEQLSNPKKSCNKTFSTMHELGTHVSVEHVGGP [V35G],0.118 ± 0.083
7,QCIKQELICKWIDPEQLSNPKKSCNKTFSTMHELKTHVSVEHVGGP [V35K],0.446 ± 0.097
8,QCIKQELICKWIDPEQLSNPKKSCNKTFSTMHELYTHVSVEHVGGP [V35Y],0.296 ± 0.1
9,QCIKQELICKWIDPEQLSNPKKSCNKTFSTMHELETHVSVEHVGGP [V35E],0.529 ± 0.091
10,QCIKQELICKWIDPEQLSNPKKSCNKTFSTMHELFTHVSVEHVGGP [V35F],0.054 ± 0.11
11,QCIKQELICKWIDPEQLSNPKKSCNKTFSTMHELNTHVSVEHVGGP [V35N],0.761 ± 0.1
12,QCIKQELICKWIDPEQLSNPKKSCNKTFSTMHELQTHVSVEHVGGP [V35Q],0.543 ± 0.099
13,QCIKQELICKWIDPEQLSNPKKSCNKTFSTMHELWTHVSVEHVGGP [V35W],0.2 ± 0.089
14,QCIKQELICKWIDPEQLSNPKKSCNKTFSTMHELMTHVSVEHVGGP [V35M],0.245 ± 0.097
15,QCIKQELICKWIDPEQLSNPKKSCNKTFSTMHELPTHVSVEHVGGP [V35P],-0.848 ± 0.11
16,QCIKQELICKWIDPEQLSNPKKSCNKTFSTMHELVTHWSVEHVGGP [V38W],0.82 ± 0.09
17,QCIKQELICKWIDPEQLSNPKKSCNKTFSTMHELVTHSSVEHVGGP [V38S],0.202 ± 0.088
18,QCIKQELICKWIDPEQLSNPKKSCNKTFSTMHELVTHGSVEHVGGP [V38G],-0.095 ± 0.084
19,QCIKQELICKWIDPEQLSNPKKSCNKTFSTMHELVTHTSVEHVGGP [V38T],0.052 ± 0.1

row,Variant,abundance fitness
1,QCIKQELICKWIDPEQLSNPKKSCNKTFSTMHELVTHRSVEHVGGP [V38R],0.607 ± 0.083
2,QCIKQELICKWIDPEQLSNPKKSCNKTFSTMHELVTHDSVEHVGGP [V38D],-0.159 ± 0.1
3,QCIKQELICKWIDPEQLSNPKKSCNKTFSTMHELVTHISVEHVGGP [V38I],-0.021 ± 0.1
4,QCIKQELICKWIDPEQLSNPKKSCNKTFSTMHELVTHKSVEHVGGP [V38K],0.623 ± 0.097
5,QCIKQELICKWIDPEQLSNPKKSCNKTFSTMHELVTHASVEHVGGP [V38A],-0.161 ± 0.093
6,QCIKQELICKWIDPEQLSNPKKSCNKTFSTMHELVTHYSVEHVGGP [V38Y],0.066 ± 0.12
7,QCIKQELICKWIDPEQLSNPKKSCNKTFSTMHELVTHNSVEHVGGP [V38N],0.035 ± 0.13
8,QCIKQELICKWIDPEQLSNPKKSCNKTFSTMHELVTHHSVEHVGGP [V38H],-0.121 ± 0.11
9,QCIKQELICKWIDPEQLSNPKKSCNKTFSTMHELVTHLSVEHVGGP [V38L],-0.165 ± 0.091
10,QCIKQELICKWIDPEQLSNPKKSCNKTFSTMHELVTHFSVEHVGGP [V38F],0.08 ± 0.13
11,QCIKQELICKWIDPEQLSNPKKSCNKTFSTMHELVTHPSVEHVGGP [V38P],-0.417 ± 0.12
12,QCIKQELICKWIDPEQLSNPKKSCNKTFSTMHELVTHMSVEHVGGP [V38M],0.278 ± 0.1
13,QCIKQELICKWIDPEQLSNPKKSCNKTFSTMHELVTHESVEHVGGP [V38E],0.518 ± 0.095
14,QCIKQELICKWIDPEQLSNPKKSCNKTFSTMHELVTHQSVEHVGGP [V38Q],0.43 ± 0.11
15,QCIKQELICKWIDPEQLSNPKKSCNKTFSTMHELVTHCSVEHVGGP [V38C],-0.066 ± 0.1
16,QCIKQELICKWIDPEQLSNPKKSCNKTFSTMHELVTCVSVEHVGGP [H37C],-1.5 ± 0.23
17,QCIKQELICKWIDPEQLSNPKKSCNKTFSTMHELVTWVSVEHVGGP [H37W],-0.953 ± 0.15
18,QCIKQELICKWIDPEQLSNPKKSCNKTFSTMHELVTAVSVEHVGGP [H37A],-0.683 ± 0.12
19,QCIKQELICKWIDPEQLSNPKKSCNKTFSTMHELVTNVSVEHVGGP [H37N],-0.747 ± 0.19

row,Variant,abundance fitness
1,QCIKQELICKWIDPEQLSNPKKSCNKTFSTMHELVTSVSVEHVGGP [H37S],-0.856 ± 0.15
2,QCIKQELICKWIDPEQLSNPKKSCNKTFSTMHELVTLVSVEHVGGP [H37L],-0.741 ± 0.11
3,QCIKQELICKWIDPEQLSNPKKSCNKTFSTMHELVTIVSVEHVGGP [H37I],-1 ± 0.26
4,QCIKQELICKWIDPEQLSNPKKSCNKTFSTMHELVTQVSVEHVGGP [H37Q],-0.93 ± 0.15
5,QCIKQELICKWIDPEQLSNPKKSCNKTFSTMHELVTKVSVEHVGGP [H37K],-0.806 ± 0.15
6,QCIKQELICKWIDPEQLSNPKKSCNKTFSTMHELVTVVSVEHVGGP [H37V],-0.904 ± 0.11
7,QCIKQELICKWIDPEQLSNPKKSCNKTFSTMHELVTTVSVEHVGGP [H37T],-0.903 ± 0.14
8,QCIKQELICKWIDPEQLSNPKKSCNKTFSTMHELVTRVSVEHVGGP [H37R],-0.789 ± 0.11
9,QCIKQELICKWIDPEQLSNPKKSCNKTFSTMHELVTYVSVEHVGGP [H37Y],-0.951 ± 0.14
10,QCIKQELICKWIDPEQLSNPKKSCNKTFSTMHELVTFVSVEHVGGP [H37F],-1.1 ± 0.22
11,QCIKQELICKWIDPEQLSNPKKSCNKTFSTMHELVTPVSVEHVGGP [H37P],-0.787 ± 0.14
12,QCIKQELICKWIDPEQLSNPKKSCNKTFSTMHELVTEVSVEHVGGP [H37E],-0.611 ± 0.15
13,QCIKQELICKWIDPEQLSNPKKSCNKTFSTMHELVTDVSVEHVGGP [H37D],-0.457 ± 0.13
14,QCIKQELICKWIDPEQLSNPKKSCNKTFSTMHELVTGVSVEHVGGP [H37G],-0.565 ± 0.11
15,QCIKQELICKWIDPEQLSNPKKSCNKTFSTMHELVTMVSVEHVGGP [H37M],-0.728 ± 0.13
16,QCIKQELICKWIDPEQLSNPKKSCNKTFSTMHELVTHVSHEHVGGP [V40H],-0.136 ± 0.13
17,QCIKQELICKWIDPEQLSNPKKSCNKTFSTMHELVTHVSGEHVGGP [V40G],0.05 ± 0.084
18,QCIKQELICKWIDPEQLSNPKKSCNKTFSTMHELVTHVSKEHVGGP [V40K],-0.122 ± 0.1
